Target: T1, recombinant human Pro-Factor D (human, UniProt P00746 20-253)
T1 construct: also used for the endogenous pro-Factor D detected in 3MC patient serum; also called pro CFD; hPro-CFD
Assay: sandwich ELISA: coat goat polyclonal AF1824; 2 ug/mL recombinant CFD spiked into buffer or 10% Factor D-depleted serum; detection with 14A11 hybridoma supernatant diluted in half, HRP goat anti-mouse IgG Fc; OD450
Description: ELISA plates were coated overnight at 4° C. with polyclonal goat anti-human CFD AF1824 (R&D Systems). Plate wells were washed, blocked, and washed again. Normal human serum pool, normal human plasma pool or Factor D-depleted human serum were diluted 10-fold in assay buffer (PBS with 1% BSA and 0.05% Tween 20, PBST-BSA), either un-spiked or spiked with 2 μg/mL recombinant pro-(pro CFD) or mature-factor D (mature CFD). These matrices, including a buffer control with or without recombinant protein spiked in, were incubated for 60 minutes at room temperature, and then washed. […] The detection antibodies were incubated for one hour at room temperature and washed, then developed with a horseradish peroxidase (HRP)-labeled goat polyclonal to mouse IgG Fc (Jackson ImmunoResearch).

binding result: no binding
B1: 14A11, hybridoma supernatant (antibody, V domains shown)
VH: QITLKESGPGILQSSQTLSLTCSFSGVSLTTSGMGVSWIRQPSGKGLEWLAHIYWDDEKHYHPSLKSRLTISKDASRNQVFFRILSVDTADTATYYCALRYYGYRSFMDYWGQGTSVTVSS
VL: DVLMTQSPLSLPVSLGDQASIFCRSNQSIVHSNGNTYFEWYLQKPGQSPKLLIYKVSNRFSGVPDRFSGSGSGTDFTLRISRVEAEDLGIYYCFQGSHVPPTFGGGTKLEIKR
notes: Mouse hybridoma antibody
